{"source": "paper PMC9104065", "target": "Wisteria floribunda agglutinin (Wisteria floribunda)", "assay": "automated chemiluminescent enzyme immunoassay (CLEIA, HISCL); IgA1 standards captured on WFA-conjugated magnetic beads, detected with alkaline-phosphatase-labelled anti-IgA1 mAb; 42 °C", "data": [{"substance": "polymeric IgA1 standard cross linked with glutaraldehyde, with sialidase digestion", "values": [{"measurement": "CLEIA count, fold over nIgA1 not treated with sialidase", "value": 700, "unit": "fold"}]}]}
